The text below walks through data of US20250051473A1 (IGM BIOSCIENCES, published 2025).

Assay [1] addresses T1, recombinant human CD38 extracellular domain protein (ACROBiosystems, Cat #CD8-H5224) (human, UniProt P28907 43-300).
T1 construct: Bought protein; also called recombinant human CD38 protein
Description: BLI (Octet 384), IgG on anti-human IgG Fc biosensors, soluble human CD38 as analyte, 1:1 global fit. In general terms: In BLI a coated tip is dipped into the sample, and binding shifts an interference pattern.
Description: Samples and buffer were applied in 384-well plates. After an initial baseline calibration for 60 seconds, sensors were loaded with 20 nM of IgG antibodies. The biosensors were dipped into buffer to reach a baseline value and incubated for 600 seconds with 2-fold serial diluted human CD38 protein starting at 100 nM for association, followed by 900 seconds in buffer for dissociation.

The target of assay [2] is T1, recombinant human CD38 extracellular …. Description: ELISA screen of hybridoma supernatants on recombinant CD38. On the technique in general: In an ELISA, binding on a coated surface is turned into a signal by an enzyme label.
The target of assay [3] is T2, recombinant cynomolgus monkey CD38 extracellular domain protein (ACROBiosystems) (cynomolgus monkey, UniProt Q5VAN0 44-301).
T2 construct: Bought extracellular domain protein; also called cyno CD38; recombinant cyno CD38
Described as above.

B1: IgG B-2 (antibody, V domains shown)
VH: QVQLVQSGAEVKKPGSSVKVSCKASGYTFTSYNMHWVRQAPGQGLEWMGYIYPGNGGTNYNQKFKGRVTITADESTSTAYMELSSLRSEDTAVYYCARGASMITTGAWFAYWGQGTLVTVSS
VL: DIQMTQSPSSVSASVGDRVTITCRASESLDTYGNSFMYWYQQKPGKAPKLLIYLASSLESGVPSRFSGSGSGTDFTLTISSLQPEDFATYYCHQNHEDPWTFGQGTKVEIK
notes: also called humanized Clone B IgG (BVH1 / BVL1)
On to B1, for which, in assay [1], the equilibrium dissociation constant (Kd) was 0.8 nM, the koff came to 0.000225 s⁻¹ and the kon was found to be 281000 M⁻¹ s⁻¹.

B2: Clone G (antibody, V domains shown)
VH: QVQLQQPGPELVKPVASVKISCKTSDYAFSSSWMNWVKQRPGKGLEWIGWIYPGDGDTNYNGKFKGKATLTADKSSSTAYMQLSSLTSEDSAVYFCARGRWGMDNWGQGTSVTVSS
VL: DIVMTQSHKFMSTSVGDRVSITCKASQNVVTAVAWYQQKPGQSPKLLIYWASSRHTGVPDRFTGSGSGTDFTLTISNVQSEDLADYFCQQYSNYPFTFGSGTKLEIK
notes: Murine hybridoma antibody tested as supernatant; also called anti-CD38 murine hybridoma clone G
Take B2: the binding result in assay [2] and in assay [3] was “binds” throughout.

B3: Clone H (antibody, V domains shown)
VH: QVPLHQSGPELIKPGASLKISCKASDSAFNNSWMNWVRQRPGKGLEWIGWIYPGDDDTKYNGKFMGKATLTADKSSGTAYMQLSSLTSEDSAVYFCARGRWGMDYWGQGTSVTVSS
VL: DIVMTQFHNFMSTSVGDRVNINCKASQNVVTAVAWYQQKPGQSPKLLIYWASTRHTGVPDRFTGSGSGTDFTLTISNVQSEDLADYFCQQYSNYPFTFGSGTKLEIK
notes: Murine hybridoma antibody tested as supernatant; also called anti-CD38 murine hybridoma clone H
Turning to B3, the binding result in assay [2] and in assay [3] was “binds” each time.

B4: Clone I (antibody, V domains shown)
VH: QVPLQQSGPELVKPGASVKISCKASDSAFNNSWTIWVRQRPGKGLEWIGWIYPGDDDTKYNGKFMGKATLTADKSSGTAYMQLSSLTSEDSAVYFCARGRWGMDYWGQGTSVTVSS
VL: DIVMTQSRKFMSTSVGDRVSISCKASQNVVTAVAWYQQKPGQSPKLLIYWASTRHTGVPDRFTGSGSGTDFTLTISNVQSEDLADYFCQQYSNYPFTFGSGTELEIK
notes: Murine hybridoma antibody tested as supernatant; also called anti-CD38 murine hybridoma clone I
For the molecule B4, the binding result in assay [2] and in assay [3] was “binds” each time.

B5: Clone F (antibody, V domains shown)
VH: EVQLQQSGAEFVRPGASVKLSCTASGFNIKDSLMHWVKQRPEQGLEWIGWIDPEDDKTKYAPKFQDEATLTADTSSNTAYLHLSSLTSEDTAIYYCARRFLRGFAYWGQGTLVTVSA
VL: DIVMTQSPSSLSVSAGEKVTMSCKSSQSLLNSGNQKNYLAWYQQKPGQPPKLLIYGASTRESGVPDRFTGSGSGTDFTLTISSVQAEDLAVYYCQNDHSYPYTFGGGTKLEIK
notes: Murine hybridoma antibody tested as supernatant; also called anti-CD38 murine hybridoma clone F
For the molecule B5, the binding result in assay [2] and in assay [3] was “binds” in each case.

B6: Clone B (antibody, V domains shown)
VH: QAYLQQSGAEVVRSGASVKMSCKAAGYTFTSYNMHWVKQTPGQGLEWIGYIYPGNGGTNYNQKFKGKATLTADTSSTTAYMQISSLTSEDSAVYFCARGASMITTGAWFAYWGQGTLVTVSA
VL: NIVLTQSPASLAVSLGQRATISCRASESLDTYGNSFMYWYQQKPGQPPKLLIYLASSLESGVPARFSGSGSRTDFTLTIDPVEADDAATYYCHQNHEDPWTFGGGTKLEIK
notes: Murine hybridoma antibody tested as supernatant; also called anti-CD38 murine hybridoma clone B
As to B6, the binding result in assay [3] is given as “binds”.

B7: IgG B-1 (antibody, V domains shown)
VH: QAYLQQSGAEVVRSGASVKMSCKAAGYTFTSYNMHWVKQTPGQGLEWIGYIYPGNGGTNYNQKFKGKATLTADTSSTTAYMQISSLTSEDSAVYFCARGASMITTGAWFAYWGQGTLVTVSA
VL: NIVLTQSPASLAVSLGQRATISCRASESLDTYGNSFMYWYQQKPGQPPKLLIYLASSLESGVPARFSGSGSRTDFTLTIDPVEADDAATYYCHQNHEDPWTFGGGTKLEIK
notes: also called chimeric IgG of Clone B
B7: in assay [1], the Kd came to 0.526 nM, the koff was found to be 7.32e-05 s⁻¹ and the kon stood at 139000 M⁻¹ s⁻¹.

B8: IgG OKT10-1 (antibody, V domains shown)
VH: EVKLQESGGGLVQPGGSLKLSCAASGFDFSRSWMNWVRQAPGKGLEWIGEINPDSSTINYTTSLKDKFIISRDNAKNTLYLQMTKVRSEDTALYYCARYGNWFPYWGQGTLVTVSA
VL: DIVMTQSPKIMPTSVGDRVSVTCKASQNVDTNVAWYQQKPGQSPKALIYSASYRYSGVPDRFTGSGSGTDFTLTITNVQSEDLAEYFCQQYDSYPLTFGAGTKLDLK
notes: also called parental OKT10 in IgG format
On to B8, for which, in assay [1], the Kd is 5.97 nM, the koff is 0.00206 s⁻¹ and the kon was determined as 344000 M⁻¹ s⁻¹.

B9: IgG E-2 (antibody, V domains shown)
VH: QVQLVQSGAEVKKPGSSVKVSCKASGYTFTNHWIEWVRQAPGQGLEWMGDIFPGGGYTDYNEKFKGRVTITADESTSTAYMELSSLRSEDTAVYYCARGRDLAMDYWGQGTLVTVSS
VL: DIQMTQSPSSLSASVGDRVTITCHASQNINVWLGWYQQKPGKAPKLLIYKASNLHTGVPSRFSGSGSGTDFTLTISSLQPEDFATYYCQQGQSYPYTFGQGTKVEIK
notes: also called humanized Clone E IgG (EVH1 / EVL1)
B9: in assay [1], the Kd was found to be 7.62 nM, the off-rate constant (koff) amounted to 0.00378 s⁻¹ and the kon came to 496000 M⁻¹ s⁻¹.

B10: IgG OKT10-2 (antibody, V domains shown)
VH: EVQLLESGGGLVQPGGSLRLSCAASGFDFSRSWMNWVRQAPGKGLEWVSEINPDSSTINYATSLKDRFTISRDNSKNTLYLQMNSLRAEDTAVYYCARYGNWFPYWGQGTLVTVSS
VL: DIQMTQSPSSLSASVGDRVTITCKASQNVDTNVAWYQQKPGKAPKALIYSASYRYSGVPSRFSGSGSGTDFTLTISSLQPEDFATYYCQQYDSYPLTFGQGTKVEIK
notes: also called humanized OKT10 IgG (OKT10VH2 / OKT10VL2)
For B10, in assay [1], the Kd was found to be 28.3 nM, the koff came out at 0.0113 s⁻¹ and the kon was determined as 400000 M⁻¹ s⁻¹.

B11: Clone C (antibody, V domains shown)
VH: EVQLQQSGTVLARPGASVKMSCKASGYTFTRYWMHWVKQRPGQDLEWIGGFYPGNSDTRYNQKFKDKAKLTAVTSTSTAYMELSSLTNEDSAVYYCTRGDRHDEGFAYWGQGTLVTVSA
VL: DIQMTQSPASLSASVGETVTITCRASGNIHNYLAWYQQKQGKSPQLLVYNAKTLPDGVPSRFSGSGSGTQYSLKINSLQPEDFGTYYCQNIWTNYTFGGGTKLEIK
notes: Murine hybridoma antibody tested as supernatant; also called anti-CD38 murine hybridoma clone C
B11: the binding result in assay [2] and in assay [3] was “binds” each time.

B12: Clone A (antibody, V domains shown)
VH: QVQLQQSGAELVKPGASVKISCKASGYTFSNYWIEWVKQRPGLGLEWIGDILPGSGTTNYNEKFKGKATFTADTSSNTAYMQLSSLTSEDSAVYYCAGYGNYLWFTYWGQGTLVTVSA
VL: DIQMNQSPSSLSASLGDTITITCHASQNINVWLSWYQQKPGNIPKLLIYKASNLHTGVPSRFSGSGSGTGFTLTISSLQPEDIATYYCQQGQSYPYTFGGGTKLEIK
notes: Murine hybridoma antibody tested as supernatant; also called anti-CD38 murine hybridoma clone A
For B12, the binding result in assay [2] and in assay [3] was “binds” in each case.

B13: IgG E-1 (antibody, V domains shown)
VH: QVQLQQSGAELVRPGTSVKMSCKAAGYTFTNHWIEWVKQRPGHGLEWIGDIFPGGGYTDYNEKFKGKATLTADTSSSTAYMQLSSLTSEDSAIYYCARGRDLAMDYWGQGTSVTVSS
VL: DIQMNQSPSSLSASLGDTITITCHASQNINVWLGWYQQKPGNIPKLLIYKASNLHTGVPSRFSGSGSGTGFTLTISSLQPEDIATYYCQQGQSYPYTFGGGTKLEIK
notes: also called chimeric IgG of Clone E
For B13, in assay [1], the Kd was determined as 1.99 nM, the off-rate constant (koff) amounted to 0.00117 s⁻¹ and the kon worked out at 587000 M⁻¹ s⁻¹.

B14: Clone E (antibody, V domains shown)
VH: QVQLQQSGAELVRPGTSVKMSCKAAGYTFTNHWIEWVKQRPGHGLEWIGDIFPGGGYTDYNEKFKGKATLTADTSSSTAYMQLSSLTSEDSAIYYCARGRDLAMDYWGQGTSVTVSS
VL: DIQMNQSPSSLSASLGDTITITCHASQNINVWLGWYQQKPGNIPKLLIYKASNLHTGVPSRFSGSGSGTGFTLTISSLQPEDIATYYCQQGQSYPYTFGGGTKLEIK
notes: Murine hybridoma antibody tested as supernatant; also called anti-CD38 murine hybridoma clone E
For B14, the binding result in assay [3] is recorded as “binds”.

The Kd is a measure of binding affinity in units of concentration. As usually defined, the koff is the first-order rate constant of dissociation. In general, kon refers to the rate constant with which the complex forms.
